Data reported in article doi:10.64898/2025.12.08.693039.

Tested on: LexA (Escherichia coli)
Assay: EMSA
Conditions: 0.5 nM DNA or nucleosome, 10 mM Tris-HCl pH 8.0, 130 mM NaCl, 10% glycerol, 0.0075% Tween-20, room temperature, 20 min; 5% native acrylamide gel in 0.3x TBE

Substance YNN1-LexO naked DNA has a Kd of less than 5 nM.
